Measured values reported in patent publication US20240059797A1 (GRITSTONE BIO, published 2024).
Substitutions are numbered along the chain they refer to. Values belong to the binder of their own block, whether it stands above or below them.

Legend:
[1] = molecular target: T1, HLA-A*01:01_… (HLA-PEPTIDE target G2), recombinant biotinylated complex (human, enzymatically biotinylated (BirA)); experiment: BLI (ForteBio Octet HTX), biotinylated G2-pHLA captured on streptavidin SAX biosensor, bispecific in solution, 1:1 Fit
T1 construct: also called G2-pHLA
Excerpt: (§1) The biosensors were then dipped in assay buffer for a baseline. […] The biosensors were finally dipped into wells containing assay buffer to measure the dissociation rate for another 50 seconds. Referencing was completed by having a biosensor with no immobilized ligand dipped into analyte. Kinetic data was processed with Octet™ software using a 1:1 kinetic model with errors within 10%, X² below 3, and R² above 0.9.

[2] = molecular target: T1, HLA-A*01:01_… (HLA-PEPTIDE target G2), …; experiment: BLI (ForteBio Octet HTX), biotinylated G2-pHLA captured on streptavidin SAX biosensor, bispecific in solution, 1:1 kinetic model
Description: (§2) The affinity of wildtype and DSB mutants were analyzed on the ForteBio Octet HTX in 96-channel mode with biolayer interferometry (BLI) detection. […] The biosensors were then dipped in assay buffer for a baseline. […] The biosensors were finally dipped into wells containing assay buffer to measure the dissociation rate for another 50 seconds. Referencing was completed by having a biosensor with no immobilized ligand dipped into analyte. Kinetic data was processed with Octet™ software using a 1:1 kinetic model with errors within 10%, X² below 3, and R² above 0.9.

[3] = molecular target: T1, HLA-A*01:01_… (HLA-PEPTIDE target G2), …; experiment: BLI (ForteBio Octet HTX), biotinylated G2-pHLA captured on streptavidin SAX biosensor, bispecific in solution, 1:2 Fit
[4] = molecular target: T1, HLA-A*01:01_… (HLA-PEPTIDE target G2), …; experiment: BLI (Octet HTX), biotinylated pHLA on SAX sensor, 1:1 model
Description: as §2

[5] = molecular target: T2, HLA-A*01:01_… (G2) presented on cells (human); experiment: flow cytometry, A375 cells expressing the G2 peptide
T2 construct: whole, on cells; K562 transduced with HLA-A*01:01 and pulsed with peptide, or A375 transduced with a 10x peptide cassette; also called G2 on K562 or A375 cells
Description: Tumor cells engineered to express target peptide were harvested, washed in PBS, and stained with eBioscience Fixable Viability Dye eFluor 450 for 15 minutes at room temperature. Following another wash in PBS+1-2% FBS, cells were resuspended with the indicated molecules at varying concentrations and incubated for 1 hour at 4° C. After another wash, PE-conjugated goat anti-human IgG secondary antibody (Jackson ImmunoResearch) was added at 1:100 to 1:200 for 30 minutes at 4° C. After washing in PBS+1-2% FBS, cells were resuspended in PBS+1-2% FBS and analyzed by flow cytometry. Flow cytometric analysis was performed on the Attune NxT Flow Cytometer (ThermoFisher) using the Attune NxT Software. Data was analyzed using FlowJo.

[6] = molecular target: T3, HLA-B*35:01_… (HLA-PEPTIDE target G5), recombinant biotinylated complex (human, enzymatically biotinylated (BirA)); experiment: BLI (ForteBio Octet HTX), biotinylated G5-pHLA captured on streptavidin SAX biosensor, bispecific in solution, 1:1 Fit
T3 construct: also called G5-pHLA
Excerpt: as §1

[7] = molecular target: T3, HLA-B*35:01_… (HLA-PEPTIDE target G5), …; experiment: BLI (ForteBio Octet HTX), biotinylated G5-pHLA captured on streptavidin SAX biosensor, bispecific in solution, 1:2 Fit
[8] = molecular target: T4, HLA-B*35:01_… (G5) presented on cells (human); experiment: flow cytometry on LN229 cells engineered to express the G5 peptide (LN229-G5-9mer), PE anti-human IgG secondary
T4 construct: whole, on cells; also called G5 on K562 or LN229 cells
Description: Cells were harvested, washed in PBS, and stained with eBioscience Fixable Viability Dye eFluor 450 for 15 minutes at room temperature. Following another wash in PBS+2% FBS, cells were resuspended with bispecifics at varying concentrations. Cells were incubated with bispecifics for 1 hour at 4° C. After another wash, PE-conjugated goat anti-human IgG secondary antibody (Jackson ImmunoResearch) was added at 1:100. After incubating at 4° C. for 45 minutes and washing in PBS+2% FBS, cells were resuspended in PBS+2% FBS and analyzed by flow cytometry. Flow cytometric analysis was performed on the Attune NxT Flow Cytometer (ThermoFisher) using the Attune NxT Software. Data was analyzed using FlowJo.

[9] = molecular target: HLA-A*02:01_… (HLA-PEPTIDE target G7), recombinant biotinylated complex (human, enzymatically biotinylated (BirA)); experiment: phage panning, scFv ELISA
Description: Phage library screening was carried out according to the overall screening design described above. Three to four rounds of bead-based panning were performed to identify scFv binders to each peptide-HLA complex. For each round of panning, an aliquot of starting phage was set aside for input titering and the remaining phage was depleted three times against Dynabead M-280 streptavidin beads (Life Technologies) followed by a depletion against Streptavidin beads pre-bound with 100 μmoles of pooled negative peptide-HLA complexes. For the first round of panning, 100 μmoles of peptide-HLA complex bound to streptavidin beads was incubated with depleted phage for 2 hours at room temperature with rotation. Three five-minute washes with 0.5% BSA in 1×PBST (PBS+0.05% Tween-20) followed by three five-minute washes with 0.5% BSA in 1×PBS were utilized to remove any unbound phage to the peptide-HLA complex bound beads. To elute the bound phage from the washed beads, 1 ml 0.1M TEA was added and incubated for 10 minutes at room temperature with rotation. The eluted phage was collected from the beads and neutralized with 0.5 ml 1M Tris-HCl pH 7.5. The neutralized phage was then used to infect log growth TG-1 cells (OD₆₀₀=0.5) and after an hour of infection at 37° C., cells were plated onto 2YT media with 100 μg/ml carbenicillin and 2% glucose (2YTCG) agar plates for output titer and bacterial growth for subsequent panning rounds.
96-well and/or 384-well streptavidin coated plates (Pierce) were coated with 2 μg/ml peptide-HLA complex in HLA buffer and incubated overnight at 4° C. Plates were washed three times between each step with PBST (PBS+0.05%). The antigen coated plates were blocked with 3% BSA in PBS (blocking buffer) for 1 hour at room temperature. After washing, scFv PPEs were added to the plates and incubated at room temperature for 1 hour. Following washing, mouse anti-v5 antibody (Invitrogen) in blocking buffer was added to detect scFv and incubated at room temperature for 1 hour. After washing, HRP-goat anti-mouse antibody (Jackson ImmunoResearch) was added and incubated at room temperature for 1 hour.

[10] = molecular target: T2, HLA-A*01:01_… (G2) presented on cells; experiment: flow cytometry, peptide-pulsed K562 cells
Description: Cells were harvested, washed in PBS, and stained with eBioscience Fixable Viability Dye eFluor 450 for 15 minutes at room temperature. Following another wash in PBS+2% FBS, cells were resuspended with bispecifics at varying concentrations. Cells were incubated with bispecifics for 1 hour at 4° C. […] After incubating at 4° C. for 45 minutes and washing in PBS+2% FBS, cells were resuspended in PBS+2% FBS and analyzed by flow cytometry. […] All cell lines were stained and analyzed with bispecific binding using the same methods as the K562 cells.
Flow cytometric analysis was performed on the Attune NxT Flow Cytometer (ThermoFisher) using the Attune NxT Software. Data was analyzed using FlowJo.

[11] = molecular target: T1, HLA-A*01:01_… (HLA-PEPTIDE target G2), …; experiment: BLI

B1: 4-hOKT3-G2(1H11) (bispecific antibody, human IgG1, kappa, N297Q)
chain: not shown
heavy: QVQLVQSGAEVKKPGASVKVSCKASGYTFTNYYMHWVRQAPGQGLEWMGMINPSGGGTSYAQKFQGRVTMTRDTSTSTVYMELSSLRSEDTAVYYCARGNPWELRLDYWGQGTLVTVSSGGGGSGGGGSGGGGSGGGGSDIQMTQSPSSLSASVGDRVTITCQASQDISNYLNWYQQKPGKAPKLLIYAASSLQSGVPSRFSGSGSGTDFTLTISSLQPEDFATYYCQQYYSYPFTFGPGTKVDIKGGGGSGGGGSQVQLVQSGAEVKKPGASVKVSCKASGYTFTRYTMHWVRQAPGQGLEWMGYINPSRGYTNYNQKFKDRVTLTTDKSSSTAYMELSSLRSEDTAVYYCARYYDDHYSLDYWGQGTLVTVSSASTKGPSVFPLAPSSKSTSGGTAALGCLVKDYFPEPVTVSWNSGALTSGVHTFPAVLQSSGLYSLSSVVTVPSSSLGTQTYICNVNHKPSNTKVDKRVEPKSCDKTHTCPPCPAPELLGGPSVFLFPPKPKDTLMISRTPEVTCVVVDVSHEDPEVKFNWYVDGVEVHNAKTKPREEQYQSTYRVVSVLTVLHQDWLNGKEYKCKVSNKALPAPIEKTISKAKGQPREPQVCTLPPSREEMTKNQVSLSCAVKGFYPSDIAVEWESNGQPENNYKTTPPVLDSDGSFFLVSKLTVDKSRWQQGNVFSCSVMHEALHNRFTQKSLSLSPGK
light: DIQMTQSPSSLSASVGDRVTITCSASSSVSYMNWYQQKPGKAPKRLIYDTSKLASGVPSRFSGSGSGTDFTLTISSLQPEDFATYYCQQWSSNPFTFGQGTKLEIKRTVAAPSVFIFPPSDEQLKSGTASVVCLLNNFYPREAKVQWKVDNALQSGNSQESVTEQDSKDSTYSLSSTLTLSKADYEKHKVYACEVTHQGLSSPVTKSFNRGEC
notes: format 4; its Fc may differ; also called 4-G2(1H11)-hOKT3; Format 4 G2(1H11) without the DSB
Kd [1]: 30.3 nM | koff [1]: 0.0277 s⁻¹ | kon [1]: 913000 M⁻¹ s⁻¹ | koff [2]: 0.00397 s⁻¹ | Kd [3]: 1640 nM | koff [3]: 0.324 s⁻¹ | kon [3]: 198000 M⁻¹ s⁻¹ | Kd [4]: 18 nM | EC50 [5]: 9.8 nM

B2: 4-G5(1C12)_10AAL hOKT3a (bispecific antibody)
chain: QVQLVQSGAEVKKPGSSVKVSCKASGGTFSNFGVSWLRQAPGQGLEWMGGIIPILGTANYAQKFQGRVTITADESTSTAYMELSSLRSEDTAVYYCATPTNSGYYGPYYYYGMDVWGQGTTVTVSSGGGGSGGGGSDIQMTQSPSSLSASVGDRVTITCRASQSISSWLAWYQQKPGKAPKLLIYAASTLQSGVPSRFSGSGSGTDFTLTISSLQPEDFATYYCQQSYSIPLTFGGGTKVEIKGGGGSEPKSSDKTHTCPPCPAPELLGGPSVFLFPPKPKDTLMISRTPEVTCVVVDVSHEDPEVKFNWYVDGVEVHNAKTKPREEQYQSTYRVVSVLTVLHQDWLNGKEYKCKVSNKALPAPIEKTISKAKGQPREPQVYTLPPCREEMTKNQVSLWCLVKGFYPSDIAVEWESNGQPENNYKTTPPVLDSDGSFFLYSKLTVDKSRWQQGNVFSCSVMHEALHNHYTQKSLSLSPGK
heavy: QVQLVQSGAEVKKPGSSVKVSCKASGGTFSNFGVSWLRQAPGQGLEWMGGIIPILGTANYAQKFQGRVTITADESTSTAYMELSSLRSEDTAVYYCATPTNSGYYGPYYYYGMDVWGQGTTVTVSSGGGGSGGGGSDIQMTQSPSSLSASVGDRVTITCRASQSISSWLAWYQQKPGKAPKLLIYAASTLQSGVPSRFSGSGSGTDFTLTISSLQPEDFATYYCQQSYSIPLTFGGGTKVEIKGGGGSGGGGSQVQLVQSGAEVKKPGASVKVSCKASGYTFTRYTMHWVRQAPGQGLEWMGYINPSRGYTNYNQKFKDRVTLTTDKSSSTAYMELSSLRSEDTAVYYCARYYDDHYSLDYWGQGTLVTVSSASTKGPSVFPLAPSSKSTSGGTAALGCLVKDYFPEPVTVSWNSGALTSGVHTFPAVLQSSGLYSLSSVVTVPSSSLGTQTYICNVNHKPSNTKVDKRVEPKSCDKTHTCPPCPAPELLGGPSVFLFPPKPKDTLMISRTPEVTCVVVDVSHEDPEVKFNWYVDGVEVHNAKTKPREEQYQSTYRVVSVLTVLHQDWLNGKEYKCKVSNKALPAPIEKTISKAKGQPREPQVCTLPPSREEMTKNQVSLSCAVKGFYPSDIAVEWESNGQPENNYKTTPPVLDSDGSFFLVSKLTVDKSRWQQGNVFSCSVMHEALHNRFTQKSLSLSPGK
light: B1 light
notes: format 4 diabody; also called G5(1C12)-hOKT3a Format 4 with shortened linkers
Kd [6]: 2.2 nM | koff [6]: 0.00279 s⁻¹ | kon [6]: 1.27e+06 M⁻¹ s⁻¹ | Kd [7]: 16.1 nM | koff [7]: 0.00652 s⁻¹ | kon [7]: 405000 M⁻¹ s⁻¹ | EC50 (read off the curve) [8]: ~1 nM

B3: 4-hOKT3-G2(1H11) with engineered H44/L100 disulfide bond (bispecific antibody, human IgG1, kappa, N297Q)
chain: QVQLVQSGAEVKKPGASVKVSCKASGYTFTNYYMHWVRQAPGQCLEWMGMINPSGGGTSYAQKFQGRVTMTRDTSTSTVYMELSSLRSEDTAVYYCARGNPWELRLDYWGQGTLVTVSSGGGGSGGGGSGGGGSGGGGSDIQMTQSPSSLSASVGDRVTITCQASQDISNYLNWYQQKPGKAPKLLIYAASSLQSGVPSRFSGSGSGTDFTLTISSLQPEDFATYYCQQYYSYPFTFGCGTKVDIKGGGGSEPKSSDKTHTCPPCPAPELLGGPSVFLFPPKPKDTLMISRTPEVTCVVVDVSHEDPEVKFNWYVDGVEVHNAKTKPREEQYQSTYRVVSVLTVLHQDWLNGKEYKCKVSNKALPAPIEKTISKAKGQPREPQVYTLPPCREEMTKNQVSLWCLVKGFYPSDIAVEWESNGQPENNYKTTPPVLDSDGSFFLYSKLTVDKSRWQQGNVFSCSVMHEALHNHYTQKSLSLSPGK
heavy: B1 heavy with G44C, P239C
light: B1 light
notes: also called G2(1H11)-hOKT3_DSBH44/L100 Format 4; G2 Format 4 with the DSB
koff [2]: 0.025 s⁻¹ | Kd [4]: 35.1 nM | EC50 [5]: 1750 nM

Results, then the binder that gave them:

binding result [9]: binds
B4: G7(1F08) scFv (scFv, V domains shown)
VH: EVQLLQSGGGLVQPGGSLRLSCAASGFTFSSSWMHWVRQAPGKGLEWVSFISTSSGYIYYADSVKGRFTISRDNSKNTLYLQMNSLRAEDTAVYYCAKDLATVGEPYYYYGMDVWGQGTTVTVSS
VL: DIQMTQSPSSLSASVGDRVTITCQASQDISNYLNWYQQKPGKAPKLLIYSASNLRSGVPSRFSGSGSGTDFTLTISSLQPEDFATYYCQQGNTFPLTFGQGTKVEIK

binding result [10]: binds | binding result [11]: binds
B5: 4-anti-CD3-G2(1H11) (bispecific antibody)
chain: not shown
heavy: QVQLVQSGAEVKKPGASVKVSCKASGYTFTNYYMHWVRQAPGQGLEWMGMINPSGGGTSYAQKFQGRVTMTRDTSTSTVYMELSSLRSEDTAVYYCARGNPWELRLDYWGQGTLVTVSSGGGGSGGGGSGGGGSGGGGSDIQMTQSPSSLSASVGDRVTITCQASQDISNYLNWYQQKPGKAPKLLIYAASSLQSGVPSRFSGSGSGTDFTLTISSLQPEDFATYYCQQYYSYPFTFGPGTKVDIKGGGGSGGGGSEVQLVESGGGLVQPGGSLRLSCAASGFTFSTYAMNWVRQAPGKGLEWVGRIRSKYNNYATYYADSVKGRFTISRDDSKNTLYLQMNSLRAEDTAVYYCVRHGNFGDSYVSWFAYWGQGTLVTVSSASTKGPSVFPLAPSSKSTSGGTAALGCLVKDYFPEPVTVSWNSGALTSGVHTFPAVLQSSGLYSLSSVVTVPSSSLGTQTYICNVNHKPSNTKVDKRVEPKSCDKTHTCPPCPAPELLGGPSVFLFPPKPKDTLMISRTPEVTCVVVDVSHEDPEVKFNWYVDGVEVHNAKTKPREEQYQSTYRVVSVLTVLHQDWLNGKEYKCKVSNKALPAPIEKTISKAKGQPREPQVCTLPPSREEMTKNQVSLSCAVKGFYPSDIAVEWESNGQPENNYKTTPPVLDSDGSFFLVSKLTVDKSRWQQGNVFSCSVMHEALHNRFTQKSLSLSPGK
light: QAVVTQEPSLTVSPGGTVTLTCGSSTGAVTTSNYANWVQQKPGKSPRGLIGGTNKRAPGVPARFSGSLLGGKAALTISGAQPEDEADYYCALWYSNHWVFGGGTKLTVLRTVAAPSVFIFPPSDEQLKSGTASVVCLLNNFYPREAKVQWKVDNALQSGNSQESVTEQDSKDSTYSLSSTLTLSKADYEKHKVYACEVTHQGLSSPVTKSFNRGEC
notes: also called 4-G2(1H11)-αCD3

binding result [9]: binds
B6: G7(3A09) scFv (scFv, V domains shown)
VH: QVQLVQSGAEVKKPGSSVKVSCKASGDTFNTYALSWVRQAPGQGLEWMGWMNPNSGNAGYAQKFQGRVTITADESTSTAYMELSSLRSEDTAVYYCARLWFGELHYYYYYGMDVWGQGTMVTVSS
VL: not shown
